The values that follow come from publication PMC12868882, “Held out wings RNA binding activity in the cytoplasm during early spermatogenesis”.

T1: HOW-STAR (STAR domain of Held out wings) (Drosophila melanogaster, UniProt O01367 72-266)
T1 sequence: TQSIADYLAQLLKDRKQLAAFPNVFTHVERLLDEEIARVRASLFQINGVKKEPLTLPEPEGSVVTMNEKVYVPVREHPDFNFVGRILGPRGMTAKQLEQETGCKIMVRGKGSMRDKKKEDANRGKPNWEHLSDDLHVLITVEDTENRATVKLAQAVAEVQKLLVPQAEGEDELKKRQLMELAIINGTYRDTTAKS

In one data set the target is T1, HOW-STAR (STAR domain of Held out wings). Nature of the data set: fluorescence anisotropy; apparent KD; RNA binding buffer: 20 mM Tris-HCl pH 7.5, 150 mM NaCl, 0.01% Triton X-100; 20 uL of 5 nM labelled RNA in about 60 uL; at least 45 min equilibration; temperature not stated. The following applies: protein: recombinant; tags: His6-GST removed by 3C protease; chain copies: 2; label: 3' 6-carboxyfluorescein. For orientation: Fluorescence polarisation rises when a labelled molecule tumbles more slowly, as on binding a larger partner.
ACACACUAACUCGU (ssRNA) [Lola]: the Kd was 6.05 nM. On the same count and under the same terms, the figure for AGCACCUAACAAUU (ssRNA) [Hipk-RA G5C] is 20.4 nM. ACACACUAACUCGUAACUAUG (ssRNA) [Lola + half-site]: the Kd came out at 9.25 nM.

For the molecule AGCAACUAACAAUU (ssRNA) [Hipk-RA G5A], the Kd was determined as 4.65 nM. With UACAACUAACAACUAACAGAU (ssRNA) [Hipk double motif], the Kd amounted to 7.46 nM. Still for that read-out and setting: the figure for AGCAGCUAACAAUU (ssRNA) [Hipk-RA] is 10.1 nM; for AGCAUCUAACAAUU (ssRNA) [Hipk-RA G5U] it is 12.4 nM; for AGCAGCUGACAAUU (ssRNA) [Hipk-RA A8G] it is 85.3 nM.

For a further data set the target is unchanged. The experiment in a line: fluorescence anisotropy; apparent KD; text: did not bind in the low nanomolar range; RNA binding buffer: 20 mM Tris-HCl pH 7.5, 150 mM NaCl, 0.01% Triton X-100; 20 uL of 5 nM labelled RNA in about 60 uL; at least 45 min equilibration; temperature not stated. The following applies: protein: recombinant; tags: His6-GST removed by 3C protease; chain copies: 2; label: 3' 6-carboxyfluorescein.
GUUGGCGUGUUUU (ssRNA) [Jvl]: the Kd was found to be 803 nM.
